B1: VG9B208 (antibody, human IgG1, lambda, V domains shown)
VH: QVQLQESGPGLVKPSETLSLTCTVSGGSISGYYWSWIRQPPGKGLELIGYIFYSGSINYNPSLKNRVTISLDTSKNQFSLKLTSVTAADTAVYYCARVGKWELRSSFDIWGQGTMVTVSS
VL: QSVLTQPPSVSAAPGQKVTISCSGSTSNIGNNDVSWYQQLPGTAPKLLIYDNNKRPSGIPDRFSGSKSGTSATLGITGLQTGDEADYYCGTWDSSLSVWVFGGGTKLTVLG
B2: VG9B87 (antibody, human IgG1, kappa, V domains shown)
VH: QVQLVESGAEVKKPGASVKVSCKASGYTFTSEYIHWVRQAPGQGLEWMGIINPSGGSTSYAQRFQGRVTMTRDTSTSTVYMEVNSLRSEDTAVYYCARERGYSYGSFDYWGQGTLVTVSS
VL: EIVLTQSPSFLSASAGDRVTITCRASQGISSYLAWYQQKPEKAPKLLIYAASTLQSGVPSRFSGSGSGTEFTLTISSLQPEDFATYYCQQFNSYSLTFGGGTKLEIKR
B3: VG9B372 (antibody, human IgG1, kappa, V domains shown)
VH: QVQLQESGPGLVKPSQTLSLTCTVSGGSISNGGFYWSWIRQHPGKGLEWLGYINYSGSTYYNPSLESRGTISLDTSKNQFSLKLRSVTAADTAVYYCARDRNYEWNFDLWGRGTLVTVSS
VL: EIVMTQSPATLSLSPGEGATLSCRASQSVSSYLAWYQQKPGQAPRLLVYDASNRATGIPARFSGSGSGTAFTLTITSLEPEDFVVYYCQQRSNWPLTFGGGTKLEIKR
B4: VG9B177 (antibody, human IgG1, lambda, V domains shown)
VH: QVQLQESGPGLVKPSETLSLTCTVSGGSINNYFWSWIRQPPGKGLEWIGYIFYSGSTNYNPSLKSRVTISIDTSKNQFSLKVNSVTAADTAVYYCARVGKWELRTAFDIWGQGTMVTVSS
VL: QSALTQPASVSGSPGQSITISCTGTSSDVADYNYVSWYQQHPGKAPKLMIYEVSNRPSGVSNRFSGSKSGNTASLTISGLQAEDEADYYCCSYTSSFTVVFGGGTKVTVLG
B5: VG9B386 (antibody, human IgG1, kappa, V domains shown)
VH: EVQLVESGGGLVKPGGSLRLSCAASGFTFSSYSMIWVRQAPGKGLEWVSSIGSSSTYIYYADSVRGRFTISRDNAKTSLYLQMNSLRAEDTAMYFCARDGETGGFDYWGQGILVTVSS
VL: EIVMTQSPGTLSLSPGERATLSCRASQSISRSYLAWYQQKPGQPPRLLIYGPSNRATGIPDRFSASGSGTDFTLTNSRLEPEDFAVYYCQQYGSLPLTFGGGTKVEIKR
B6: VG9B47 (antibody, human IgG1, kappa, V domains shown)
VH: QVQLVQSGAEVKKPGSSVKVSCKASGGSFSNYAISWMRQAPGQGLEWMGGIIPFFGTPDYAQKFQGRVTITADKSTSTAYMELSSLRSEDTAVYYCSTGGGYGDYDYYYGINVWGQGTMVTVSS
VL: DIVMTQSPLSSPVDLGQPASISCRSSQSLVHSDGNTYLSWLQQRPGQPPRLLIYKISNRFSGVPDRFSGSGAGTDFTLKISRVEAEDVGVYYCMQAKEFPLTLGGGTKVDIKR
B7: VG9B96 (antibody, human IgG1, kappa, V domains shown)
VH: EVQLVQSGAEVKKPGSSVKVSCKASGGTFSNYAISWVRLAPGQGLEWMGGIIPIFSAGTYAQRFQGRVTITADKSTSTAYMELNSLRSEDTAVYYCSSNSGTYYDYYYGMDVWGQGTMVTVSS
VL: B6 VL with P12H, D14T, S57F, F60L, E98Q, L103F, D110E
B8: VG9B136 (antibody, human IgG1, kappa, V domains shown)
VH: QVQLQQSGPGLVKPSQTLSLTCAISGDSVSSNRAAWNWIRQSPSKGLEWLGRTYYRSKWYNEYAASVKSRMSINPDTSKNQFSLQLNSVTPEDTALYYCARDLWELREACDIWGQGTMVTVSS
VL: DIVMTQSPSFLSTFVGDRVTITCRASQGISSYLAWYQQKPGKVPKLLIYVASTLQSGVPSRFSGSGSGTEFTLTISSLQPEDFATYYCQQLNSYPFTFGPGTKVDIKR
B9: VG9B112 (antibody, human IgG1, kappa, V domains shown)
VH: QVQLQQSGPGLVKPSQTLSLTCAISGDSVSSNSAAWNWIRQSPSRGLEWLGGTYYRSKWFNNYAVSVKSRITINPDTSTNQFSLQLNSVTPADTAVYYCARGEWGLRDAFDIWGQGTMVTVSS
VL: B8 VL with V3Q, T13A, F14S, T20I, S30H, F96W, P100Q, V104L, D105E
B10: VG9B144 (antibody, human IgG1, lambda, V domains shown)
VH: QVQLVQSGAEVKKPGASVKVSCKASGYTFTGYYMHWMRQAPGQGLEWMGWINPNSGATNKEQKFQGRVTMTRDTSISTAYMELSRLRSDDTAVYYCAREDDAFDVWGQGTMVTVSS
VL: SSELTQDPAVSVALGQTVRITCQGDNLRNYYATWFQQKPGQAPVLVFFGKNNRPSGIPDRFSGSSSGDTASLTITGAQAEDEADYYCNSRDSSGNHVVFGGGTKLTVLG
B11: VG9B379 (antibody, human IgG1, lambda, V domains shown)
VH: EVQLVQSGPEVKKPGASVKVSCKASGYTFTGDYIHWVRQVPGQGLEWMGWINPNSGGTNYAQKFQGRVTMTRDTSISTAFMELSRLRSDDTAVYYCAREGGVAPAAPDAFDIWGQGTMVTVSS
VL: B10 VL with N26S, N29S, T33R, F35Y, L45V, F47I, F48Y, D68N, V97R
B12: VG9B387 (antibody, human IgG1, lambda, V domains shown)
VH: EVQLVESGAEVKKPGASVKVSCKASGFTFTGYYLQWVRQAPGQGLEWMGWINPNSGYTDYAQRFQDRVTMTRDTSINTAYMELSRLRSDDTAVYYCARLDDAFDVWGQGTMVTVSS
VL: B10 VL with S2Y, N26S, T33I, F35Y, F47I, D68T, A77T, V97W
B13: VG9B392 (antibody, human IgG1, lambda, V domains shown)
VH: QVQLVQSGAEVKRPGASAKVSCKTSGYTFTGYYIHWVRQAPGQGLEWMGWINPNSGYTNSAQKFQGRVSMTRDTSISTVYMELSRLRSDDTAVYYCAREDDAFDIWGQGTLVTVSS
VL: B10 VL with N26S, N29S, T33R, F35Y, F47I, F48Y, Q78L, S92N, L105V
B14: VG9B41 (antibody, human IgG1, kappa, V domains shown)
VH: QVQLQESGPQLVRPGASVKISCKASGYSFTTYWMHWVKQRPGQGLEWIGLIDPSDSETRLNQKFKDKATLTVDKSSSTAYMRLSSPTSEDSAVYYCASNRWLLGWGQGTMVTVSS
VL: EIVLTQTPLSSPVTLGQPASISCRSSQSLVHSDGNTYLSWLHQRPGQPPRLLIYKISNRFSGVPDRFSGSGAGTDFTLKISRVETEDVGVYYCVQTREFPLTFGGGTKVEIKR
B15: VG9B77 (antibody, human IgG1, kappa, V domains shown)
VH: EVQLVESGAEVMKPGSSVKVSCKASGGTFSSYAISWVRQAPEQGLEWMGGIIPFFGTADYAQKFQGRVTITADKSTNTAYMELTSLRSEDTAVYYCATATVTTDYYYGMDVWGQGTMVTVSS
VL: B6 VL with D1E, S10F, D14T, K55E, S61T, K97R, E98Q, L103F, D110E
B16: VG9B189 (antibody, human IgG1, lambda, V domains shown)
VH: EVQLVQSGGGLVKPGASLKLSCAASGFTFSNHGMSWVRQTSDKRLEWVASITRGGDTTYYPDNVKGRFTISRENAKNTLYLQMSSLKSDDTALYYCTRGPLTVGYAMDYWGQGTTVTVSS
VL: QSVVTQPPSASGSPGQSVTISCTGTSSDVGGYNYVSWYQQHPGKAPKLMIYEVSKRPSGVPDRFSGSKSGNTASLTVSGLQAEDEADYYCNSYAGSNNFEVFGGGTKVTVLG

Substitutions are numbered along the chain they refer to.

Chain of Vg9/Vd1 TCR on SKW3 cells (Q99603 21-122): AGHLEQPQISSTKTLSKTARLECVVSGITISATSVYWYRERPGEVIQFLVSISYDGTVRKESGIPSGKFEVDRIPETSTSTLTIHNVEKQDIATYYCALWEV
Chain of Vg9/Vd1 T cell receptor expressed on SKW3 cells (Q99603 21-122): as above

The target of one test is Vg5/Vd2 T cell receptor expressed on SKW3 cells (UniProt A0JD36). The test can be described thus: flow cytometry, dose-response binding at 37 C, SKW3 cells expressing Vg5/Vd2.
Chain of Vg5/Vd2 T cell receptor expressed on SKW3 cells (A0JD36 20-115): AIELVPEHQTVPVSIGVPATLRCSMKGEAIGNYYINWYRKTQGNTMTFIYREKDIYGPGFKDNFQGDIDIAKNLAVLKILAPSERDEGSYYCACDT
On to B1, for which the Max. Activity (fold over background) was 203.

In the case of B2, the Max. Activity (fold over background) worked out at 51.6.

The molecule B3 came in with a Max. Activity (fold over background) of 171.

In turn, B4 showed a Max. Activity (fold over background) of 193.

Another test concerns the target Vg9/Vd1 T cell receptor expressed on SKW3 cells (UniProt Q99603). In words: flow cytometry, dose-response binding at 37 C, SKW3 cells expressing Vg9/Vd1. (Flow cytometry measures light scatter and fluorescence of single cells or particles in a stream.)
In the case of B1, the Max. Activity (fold over background) came out at 2.15.

Consider B2, for which the Max. Activity (fold over background) is 1.4.

The molecule B3 came in with a Max. Activity (fold over background) of 1.02.

Molecule B4 displayed a Max. Activity (fold over background) of 1.28.

The target of another test is Vg9/Vd2 TCR on SKW3_4 cells (UniProt Q99603). In words: flow cytometry DRC binding 37 C, SKW3_4 cells expressing Vg9/Vd2.
Chain of Vg9/Vd2 TCR on SKW3_4 cells (Q99603 21-122, chain 1 of 2): as the sequence (Q99603 21-122) above
Chain of Vg9/Vd2 TCR on SKW3_4 cells (A0JD36 20-115, chain 2 of 2, further chain): as the sequence (A0JD36 20-115) above
B5 yielded a Max. Activity (fold over background) of 211.

As to B6, the Max. Activity (fold over background) was found to be 162.

As to B7, the Max. Activity (fold over background) turned out to be 126.

With B8, the Max. Activity (fold over background) worked out at 181.

Take B9: the Max. Activity (fold over background) is 227.

The molecule B10 displayed a Max. Activity (fold over background) of 123.

The molecule B11 showed a Max. Activity (fold over background) of 160.

B12 yielded a Max. Activity (fold over background) of 201.

As for B13, the Max. Activity (fold over background) turned out to be 154.

B14 showed a Max. Activity (fold over background) of 11.4.

B15 gave a Max. Activity (fold over background) of 102.

Regarding B16, the Max. Activity (fold over background) turned out to be 46.1.

A further test deals with Vg9/Vd2 T cell receptor expressed on SKW3_4 cells (UniProt Q99603). The test can be described thus: flow cytometry, dose-response binding at 37 C, SKW3_4 cells expressing Vg9/Vd2.
Chain of Vg9/Vd2 T cell receptor expressed on SKW3_4 cells (Q99603 21-122, chain 1 of 2): as the sequence (Q99603 21-122) above
Chain of Vg9/Vd2 T cell receptor expressed on SKW3_4 cells (A0JD36 20-115, chain 2 of 2, further chain): as the sequence (A0JD36 20-115) above
B1 registered a Max. Activity (fold over background) of 177.

Turning to B2, the Max. Activity (fold over background) is 139.

In turn, B3 gave a Max. Activity (fold over background) of 127.

Consider B4, for which the Max. Activity (fold over background) was 161.

A further test deals with Vg5/Vd2 TCR on SKW3 cells (UniProt A0JD36). The test can be described thus: flow cytometry DRC binding 37 C, SKW3 cells expressing Vg5/Vd2.
Chain of Vg5/Vd2 TCR on SKW3 cells (A0JD36 20-115): as above
B5: the Max. Activity (fold over background) was 92.7.

B6: the Max. Activity (fold over background) was found to be 212.

Consider B7, for which the Max. Activity (fold over background) was 224.

B8 yielded a Max. Activity (fold over background) of 226.

Regarding B9, the Max. Activity (fold over background) came to 217.

On to B10, for which the Max. Activity (fold over background) was found to be 194.

Consider B11, for which the Max. Activity (fold over background) was 260.

Molecule B12 gave a Max. Activity (fold over background) of 261.

The molecule B13 had a Max. Activity (fold over background) of 281.

With B14, the Max. Activity (fold over background) turned out to be 16.1.

For B15, the Max. Activity (fold over background) is 148.

With B16, the Max. Activity (fold over background) was determined as 21.5.

The next test has as its target Vg9/Vd1 TCR on SKW3 cells (UniProt Q99603). In words: flow cytometry DRC binding 37 C, SKW3 cells expressing Vg9/Vd1.
On to B5, for which the Max. Activity (fold over background) was found to be 389.

B6 registered a Max. Activity (fold over background) of 308.

On to B7, for which the Max. Activity (fold over background) worked out at 245.

B8 had a Max. Activity (fold over background) of 288.

As for B9, the Max. Activity (fold over background) is 328.

Consider B10, for which the Max. Activity (fold over background) worked out at 205.

In turn, B11 came in with a Max. Activity (fold over background) of 295.

B12 had a Max. Activity (fold over background) of 435.

Regarding B13, the Max. Activity (fold over background) was 295.

B14 registered a Max. Activity (fold over background) of 2.18.

B15 gave a Max. Activity (fold over background) of 137.

For B16, the Max. Activity (fold over background) was found to be 1.46.

These data come from patent publication US20220125947A1.
